The target in experiment [1] is Human FcRn (human) (UniProt P55899).
The target of experiment [2] is Human FcγRIIB (human) (UniProt P31994).
Experiment [3] deals with Human FcγRIIA (human) (UniProt P12318).
Experiment [4] concerns the target Human FcγRIIIB (human) (UniProt O75015).
The target in experiment [5] is Human FcγRI (human) (UniProt P12314).
Experiment [6] addresses Human FcγRIIIA-F158 (human) (UniProt P08637).

Among the data in patent publication US20240409659A1 are kon values, retold here.

On to control IgG (7101+7103) (antibody), for which the kon worked out at 1.98e+06 M⁻¹ s⁻¹ in experiment [1]; 124000 M⁻¹ s⁻¹ in experiment [2]; 300000 M⁻¹ s⁻¹ in experiment [3]; 128000 M⁻¹ s⁻¹ in experiment [4]; 289000 M⁻¹ s⁻¹ in experiment [5]; 880000 M⁻¹ s⁻¹ in experiment [6].
